Test results taken from publication PMC7279355, “Preparation of Biphenyl-Conjugated Bromotyrosine for Inhibition of PD-1/PD-L1 Immune Checkpoint Interactions” (International Journal of Molecular Sciences, 2020).

Experiments:
[1] = target: PD-L1, histidine (His)-tagged (UniProt Q9NZQ7); experiment: AlphaScreen or HTRF; AlphaLISA kit AL356 HV/C/F (PerkinElmer), competition: biotin-conjugated PD-1 on streptavidin-coated donor beads, His-tagged PD-L1 on anti-His acceptor beads; 2 uL each of inhibitor dilution, PD-L1 (25 nM), PD-1 (25 nM) and the two beads in 10 uL; 25 °C, 90 min; IC50 from sigmoidal fit
[2] = target: PD-L1 (Homo sapiens) (UniProt Q9NZQ7); conditions: cited from earlier work
PD-L1 (Homo sapiens), sequence (Q9NZQ7 19-238): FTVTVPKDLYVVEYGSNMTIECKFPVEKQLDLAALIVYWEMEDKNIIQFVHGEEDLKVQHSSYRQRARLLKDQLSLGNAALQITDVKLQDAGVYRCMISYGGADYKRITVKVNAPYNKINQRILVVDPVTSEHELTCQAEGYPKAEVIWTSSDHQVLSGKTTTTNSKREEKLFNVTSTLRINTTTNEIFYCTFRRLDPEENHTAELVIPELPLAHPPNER

PD-L1, histidine (His)-tagged, sequence (Q9NZQ7 19-238): as above
PD-1, sequence (Q15116 25-170): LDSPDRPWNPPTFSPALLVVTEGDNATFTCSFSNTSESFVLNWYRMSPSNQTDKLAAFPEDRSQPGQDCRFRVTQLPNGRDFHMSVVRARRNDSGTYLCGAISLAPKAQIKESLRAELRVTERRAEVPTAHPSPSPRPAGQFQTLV

Substance	IC50 [1] [µM]	Kd [2] [µM]
FWRXNNI (peptide)	312	
PD-1 (from UniProt Q15116)		6.4
CERXNKM (peptide)	308	
